The target of the experiment is T1, Full-length human Tau (MAPT) (human, UniProt P10636-8 1-441).
T1 construct: Tau (MAPT), human, full length; 15N-labelled for the HSQC NMR experiments; also called unmodified Tau; source: E. coli BL21 (DE3), pNG2 vector, purified (boiling, ammonium sulfate, cation exchange, gel filtration)
Kind of experiment: NMR titration; 2D 1H-15N HSQC of 24 µM 15N-labelled Tau (or PTau^Cdk2), 5 °C, 25 mM HEPES pH 7.4/100 mM KCl/5 mM MgCl2/1 mM TCEP; chaperones added. The following applies: both partners purified.

T1 sequence (P10636 other isoform, or with tags, fused parts or gaps): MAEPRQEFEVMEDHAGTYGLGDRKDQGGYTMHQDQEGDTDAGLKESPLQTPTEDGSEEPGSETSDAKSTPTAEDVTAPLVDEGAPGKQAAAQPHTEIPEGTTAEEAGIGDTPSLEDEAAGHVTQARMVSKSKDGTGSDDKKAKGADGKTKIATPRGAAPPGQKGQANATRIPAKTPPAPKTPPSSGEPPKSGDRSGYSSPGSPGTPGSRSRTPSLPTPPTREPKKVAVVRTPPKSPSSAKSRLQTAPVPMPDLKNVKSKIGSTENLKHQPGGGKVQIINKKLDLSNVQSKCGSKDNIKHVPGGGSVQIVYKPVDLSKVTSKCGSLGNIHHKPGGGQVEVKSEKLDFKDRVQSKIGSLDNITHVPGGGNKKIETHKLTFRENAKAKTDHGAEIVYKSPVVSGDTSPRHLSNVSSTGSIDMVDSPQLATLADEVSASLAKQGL

B1: p23 (PTGES3) (natural protein, human, UniProt Q15185 1-160, looked up)
chain: MQPASAKWYDRRDYVFIEFCVEDSKDVNVNFEKSKLTFSCLGGSDNFKHLNEIDLFHCIDPNDSKHKRTDRSILCCLRKGESGQSWPRLTKERAKLNWLSVDFNNWKDWEDDSDEDMSNFDRFSEMMNNMGGDEDVDLPEVDGADDDSQDSDDEKMPDLE
notes: p23 (PTGES3), human, full-length DNA in pET28a; source: E. coli Rosetta 2 (DE3), purified (Ni-NTA, thrombin cleavage, SEC); not shown: His6, N-terminal, cleaved
In the case of B1, the binding result is given as “binds”.

(Values after PMC9237115, “Hsp multichaperone complex buffers pathologically modified Tau” (Nature Communications, 2022).)
